The text below walks through data of patent US20050287527A1, “Quantitative ranking of transient ligand binding to target biomolecules” (National Research Council of Canada, priority 2002, published 2005).

pKd: −log10 of the molar value.

This experiment deals with Recombinant Cdc42 (residues 1-178) from Candida Albicans (Candida albicans) (UniProt P0CY33). In words: method not stated; the complexes give no response in relaxation dispersion.
Chain of Recombinant Cdc42 (residues 1-178) from Candida Albicans (Candida albicans) (P0CY33 1-178 limits assumed): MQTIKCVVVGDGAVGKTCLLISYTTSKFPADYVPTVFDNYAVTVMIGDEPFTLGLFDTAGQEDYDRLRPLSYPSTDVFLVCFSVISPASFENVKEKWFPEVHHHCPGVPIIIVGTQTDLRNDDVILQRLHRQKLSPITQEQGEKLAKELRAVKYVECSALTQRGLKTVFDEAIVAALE

In the case of “40-residue CRIB domain of Candida Cla4 (peptide)”, the pKd is 9.30.

In the case of “40-residue CRIB domain of Candida Ste20 (peptide)”, the pKd was 9.30.
